Reference: patent US20240076663A1, “PEPTIDE-NUCLEIC ACID COMPLEX HAVING BLOOD-BRAIN BARRIER PENETRATION ABILITY AND COMPOSITION COMPRISING SAME” (SEASUN THERAPEUTICS, INC, priority 2019, published 2024)
“Also recorded” adds a separate entry of the source.

Assays:
[1] = general knowledge stated in the patent; cited from earlier work
[2] = Blood-brain barrier permeability of the nucleic acid complex in a mouse model (cy3 fluorescence in brain tissue, confocal microscopy); type: in vivo; conditions: ICR mice, 20 mg/kg caudal vein; for distribution of fluorescence expression among brain regions: 20 mg/kg
Procedure: In order to confirm the blood-brain barrier permeability of the nucleic acid complex, 6-week-old male ICR mice (OrientBio, Korea) were purchased and acclimatized for a week, after which 20 mg/kg (n=6) of the nucleic acid complex was administered to the caudal veins thereof. In a positive control group (n=6), fluorescent-material-labeled methotrexate was administered to the caudal veins, and in a negative control group (n=6), DMSO at the same concentration as in the experimental group was diluted with saline and administered via the same route.
The mouse model was anesthetized by intraperitoneal administration of Avertin (5 mg/kg), followed by washing and fixing of the brain tissue through perfusion with saline and 4% paraformaldehyde. The fixed brain tissue was separated and dehydrated by placing the same in 30% sugar water for 24 hours, after which an embedding process was performed using OCT. The entire region of the brain tissue was cryosectioned into 30 μm sections. In order to observe the entire brain tissue from the cerebral cortex to the brainstem, the tissues were broadly separated into a total of six regions, namely the prefrontal cortex, lateral ventricle, paraventricular nucleus, hippocampus, midbrain, and cerebellum, and mounted on slide glasses, and the nuclei were stained with DAPI for 15 minutes and then analyzed using a confocal microscope.
Therefore, in order to determine whether the administered material spreads through the present system, the brain tissue was classified into six major regions from the front to the back and analyzed. In addition, in order to observe the extent of spreading over time, the groups were separately observed on day 1 and day 3, and the numerical values thereof were analyzed.
Then, for all experimental groups to which the nucleic acid complex was administered, the distribution of fluorescence in tissues depending on the administration date was numerically analyzed, and the distribution of fluorescence expression in each tissue of the brain after administration of the nucleic acid complex was compared.

| Molecule | bioavailability (known) [1] | blood-brain barrier crossing (known) [1] | fluorescence expression by cy3 in brain tissue (confocal microscopy) ([2]; FIG. 1, versus group given only methotrexate) | fluorescence expression, day 3 versus day 1 ([2]; all brain tissue regions) | distribution of fluorescence expression among brain regions ([2]; day 1) | distribution of fluorescence expression among brain regions ([2]; day 3) |
| --- | --- | --- | --- | --- | --- | --- |
| CN(Cc1cnc2nc(N)nc(N)c2n1)c1ccc(C(=O)N[C@@H](CCC(=O)O)C(=O)O)cc1 [Methotrexate] | very low bioavailability | known to cross the blood-brain barrier | – | – | – | – |
| O=C(O)CCCc1ccc(N(CCCl)CCCl)cc1 [Chlorambucil] | – | incapable of crossing the blood-brain barrier | – | – | – | – |
| POLIGO ™_1 (chain 1 ATGATTCTGCCCTCC; chain 2 TACTAAGACGGGAGG; chemistry not given here; one strand is listed 3' to 5') | – | – | high fluorescence expression compared to the group administered only with methotrexate | higher on day 3 than on day 1 in all brain tissue regions | higher in the midbrain and cerebellum; also recorded: high in the midbrain and cerebellum | the fluorescence spread to the prefrontal cortex; also recorded: high even in the prefrontal cortex |
